Measurements reported in patent publication US10130693B2, “Peptides, combination of peptides and scaffolds for use in immunotherapeutic treatment of various cancers” (Immatics Biotechnologies GmbH, priority 2015, dated 2018).

What follows are substances tested against HLA-A*02:01 (Homo sapiens, UniProt P04439, D140Y/D185E/D98H/E176V/E277Q/G131W/G231S/I119V/I121R/I166T/I218V/L300P/L318F/N151K/N90K/P208A/P217A/Q86G/Q94H/R138H/R169H/T345S) (assay: MHC binding assay, UV-ligand exchange with beta2m ELISA (exchange yield), HLA-A*02). Conditions: binding to HLA-A*02 ranged by peptide exchange yield.
Description: Candidate peptides for T cell based therapies according to the present invention were further tested for their MHC binding capacity (affinity). The individual peptide-MHC complexes were produced by UV-ligand exchange, where a UV-sensitive peptide is cleaved upon UV-irradiation, and exchanged with the peptide of interest as analyzed. Only peptide candidates that can effectively bind and stabilize the peptide-receptive MHC molecules prevent dissociation of the MHC complexes. To determine the yield of the exchange reaction, an ELISA was performed based on the detection of the light chain (β2m) of stabilized MHC complexes. The assay was performed as generally described in Rodenko et al. (Rodenko et al., 2006).
96 well MAXISorp plates (NUNC) were coated over night with 2 ug/ml streptavidin in PBS at room temperature, washed 4× and blocked for 1 h at 37° C. in 2% BSA containing blocking buffer. […] Peptide-MHC monomers of the UV-exchange reaction were diluted 100 fold in blocking buffer. Samples were incubated for 1 h at 37° C., washed four times, incubated with 2 ug/ml HRP conjugated anti-β2m for 1h at 37° C., washed again and detected with TMB solution that is stopped with […]. Absorption was measured at 450 nm. Candidate peptides that show a high exchange yield (preferably higher than 50%, most preferred higher than 75%) are generally preferred for a generation and production of antibodies or fragments thereof, and/or T cell receptors or fragments thereof, as they show sufficient avidity to the MHC molecules and prevent dissociation of the MHC complexes.

Row | Substance | Peptide exchange (MHC class I binding score)
1 | 53 (SLLSHVIVA; listed as Homo sapiens) [compound 53] | +++ (50%-75% = +++)
2 | 54 (FINPKGNWLL; listed as Homo sapiens) [compound 54] | +++ (50%-75% = +++)
3 | 55 (IASAIVNEL; listed as Homo sapiens) [compound 55] | ++ (20%-49% = ++)
4 | 56 (KILDLTRVL; listed as Homo sapiens) [compound 56] | ++ (20%-49% = ++)
5 | 58 (ALDDSLTSL; listed as Homo sapiens) [compound 58] | ++ (20%-49% = ++)
6 | 59 (ALTKILAEL; listed as Homo sapiens) [compound 59] | +++ (50%-75% = +++)
7 | 61 (HLPDFVKQL; listed as Homo sapiens) [compound 61] | ++ (20%-49% = ++)
8 | 62 (SLFNQEVQI; listed as Homo sapiens) [compound 62] | +++ (50%-75% = +++)
9 | 63 (TLSSERDFAL; listed as Homo sapiens) [compound 63] | + (<20% = +)
10 | 65 (KLDGICWQV; listed as Homo sapiens) [compound 65] | +++ (50%-75% = +++)
11 | 66 (FITDFYTTV; listed as Homo sapiens) [compound 66] | +++ (50%-75% = +++)
12 | 70 (GLFSQHFNL; listed as Homo sapiens) [compound 70] | +++ (50%-75% = +++)
13 | 71 (GLITVDIAL; listed as Homo sapiens) [compound 71] | +++ (50%-75% = +++)
14 | 72 (GMIGFQVLL; listed as Homo sapiens) [compound 72] | +++ (50%-75% = +++)
15 | 75 (ILDNVKNLL; listed as Homo sapiens) [compound 75] | +++ (50%-75% = +++)
16 | 76 (ILLDESNFNHFL; listed as Homo sapiens) [compound 76] | +++ (50%-75% = +++)
17 | 77 (IVLSTIASV; listed as Homo sapiens) [compound 77] | +++ (50%-75% = +++)
18 | 78 (LLWGHPRVA; listed as Homo sapiens) [compound 78] | +++ (50%-75% = +++)
19 | 79 (SLVPLQILL; listed as Homo sapiens) [compound 79] | ++++ (>=75% = ++++)
20 | 80 (TLDEYLTYL; listed as Homo sapiens) [compound 80] | +++ (50%-75% = +++)
21 | 81 (VLFLGKLLV; listed as Homo sapiens) [compound 81] | ++ (20%-49% = ++)

Second part, the substance after the results:

Row | Peptide exchange (MHC class I binding score) | Substance
22 | +++ (50%-75% = +++) | 51 (LLLDGDFTL; listed as Homo sapiens) [compound 51]
23 | +++ (50%-75% = +++) | 52 (ELLSSIFFL; listed as Homo sapiens) [compound 52]
24 | ++ (20%-49% = ++) | 57 (VLISSTVRL; listed as Homo sapiens) [compound 57]
25 | ++ (20%-49% = ++) | 60 (FLIDTSASM; listed as Homo sapiens) [compound 60]
26 | ++ (20%-49% = ++) | 64 (GLSSSSYEL; listed as Homo sapiens) [compound 64]
27 | ++ (20%-49% = ++) | 67 (GVIETVTSL; listed as Homo sapiens) [compound 67]
28 | +++ (50%-75% = +++) | 69 (GIYDGILHSI; listed as Homo sapiens) [compound 69]
29 | ++ (20%-49% = ++) | 74 (ILDETLENV; listed as Homo sapiens) [compound 74]
30 | ++ (20%-49% = ++) | 82 (VLLRVLIL; listed as Homo sapiens) [compound 82]
